The values below come from patent publication US20230374475A1.

The target of data set [1] is engineered T. gorgonarius reverse-transcriptase lacking proof reading activity (3'-5' exonuclease) (TgoRTxo) (Thermococcus gorgonarius (engineered)) (UniProt P56689). Put plainly: cell-based or functional assay.
The target of data set [2] is T1, TgoRTxo (exonuclease-deficient engineered Tgo reverse transcriptase) (Thermococcus gorgonarius) (UniProt P56689).
T1 sequence: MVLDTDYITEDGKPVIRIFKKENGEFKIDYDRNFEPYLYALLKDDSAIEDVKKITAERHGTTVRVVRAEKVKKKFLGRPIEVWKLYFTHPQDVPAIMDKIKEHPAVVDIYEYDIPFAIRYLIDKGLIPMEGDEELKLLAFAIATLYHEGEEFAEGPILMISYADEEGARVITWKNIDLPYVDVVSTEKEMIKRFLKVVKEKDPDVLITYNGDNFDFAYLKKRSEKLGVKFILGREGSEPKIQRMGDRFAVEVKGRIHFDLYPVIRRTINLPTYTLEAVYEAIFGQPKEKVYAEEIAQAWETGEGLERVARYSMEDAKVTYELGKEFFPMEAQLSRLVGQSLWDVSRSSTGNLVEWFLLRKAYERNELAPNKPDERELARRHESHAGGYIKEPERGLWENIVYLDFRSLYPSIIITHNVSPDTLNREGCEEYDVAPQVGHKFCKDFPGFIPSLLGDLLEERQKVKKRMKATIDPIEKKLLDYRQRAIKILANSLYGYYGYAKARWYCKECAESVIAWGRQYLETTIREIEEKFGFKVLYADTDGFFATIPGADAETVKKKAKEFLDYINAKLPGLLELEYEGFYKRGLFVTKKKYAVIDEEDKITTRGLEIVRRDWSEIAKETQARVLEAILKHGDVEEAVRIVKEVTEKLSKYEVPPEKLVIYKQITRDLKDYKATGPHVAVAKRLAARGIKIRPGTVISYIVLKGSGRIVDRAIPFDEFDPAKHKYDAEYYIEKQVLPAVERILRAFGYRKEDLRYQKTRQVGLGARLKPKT
Conditions: RT efficiency without KPCNA; Mg, dNTPs; about 45% with 1 uM KPCNA.

Take “T. kodakarensis proliferating cell nuclear antigen (KPCNA) (from UniProt Q5JF32 2-249)”: in data set [1], the RT efficiency of TgoRTxo at 3.5 uM KPCNA compared to no KPCNA turned out to be 3 fold; the efficiency of reverse transcription (fold increase, KPCNA raised from 0 to 1 uM) turned out to be 4 fold; the reverse transcriptase efficiency of TgoRTxo in the absence of KPCNA (baseline) was 10%; the reverse transcriptase efficiency of TgoRTxo with 1 uM KPCNA amounted to 45%.

Take ~600 nt RNA template with DNA primer: in data set [2], the activity is 10%.
